Measured values from patent publication US20070020327A1.
Each block holds one binder with its values, some of them ahead of it.

Tests used:
HLA-A*0101 (human) = experiment: inhibition of 125I-labeled standard peptide 944.02 binding to purified HLA-A*0101, gel filtration
[1] = target: HLA-A*0101 molecule, purified from cell lysates (human); experiment: competition with 125I-labelled standard peptide for purified HLA-A*0101, gel filtration
HLA-A*6802 (human) [2] = experiment: competitive inhibition of 125I-labelled standard peptide binding to purified HLA, gel filtration; ratio = IC50 standard / IC50 test peptide; settings: remark: other sources report otherwise
HLA-A*0201 (human) [3] = experiment: as above
HLA-A*1101 (human) = experiment: competition with 125I-labelled standard peptide 940.06 ([..], IC50 […] nM) for purified HLA-A*1101; gel filtration
HLA-A*0206 (human) [4] = experiment: competitive inhibition of 125I-labelled standard peptide binding to purified HLA, gel filtration
HLA-A*0202 (human) [5] = experiment: as above
HLA-A*6802 (human) [6] = experiment: as above
HLA-A*0301 (human) [7] = experiment: competition with 125I-labelled probe peptide for purified HLA-A*0301, gel filtration
HLA-A*0206 (human) [8] = experiment: competitive inhibition of 125I-labelled standard peptide binding to purified HLA, gel filtration; ratio = IC50 standard / IC50 test peptide
HLA-A*0202 (human) [9] = experiment: as above
HLA-A*0203 (human) [10] = experiment: as above
HLA-A*0206 (human) [11] = experiment: competition with 125I-labelled standard peptide for purified HLA, gel filtration; ratio = IC50 standard / IC50 test peptide
HLA-A*0202 (human) [12] = experiment: as above
HLA-A*0203 (human) [13] = experiment: as above
HLA-A*6802 (human) [14] = experiment: as above
HLA-A*0201 (human) [15] = experiment: as above
HLA-A*0202 (human) [16] = experiment: competition for purified HLA with 125I-labelled standard peptide 941.01 [..] as competitor, gel filtration; settings: scale: ratio
HLA-A*0203 (human) [17] = experiment: as above; settings: scale: ratio
HLA-A*0201 (human) [18] = experiment: as above; settings: scale: ratio
HLA-A*6802 (human) [19] = experiment: competition for purified HLA with 125I-labelled standard peptide 1072.34 [..] as competitor, gel filtration; settings: scale: ratio
HLA-A*0206 (human) [20] = experiment: competition binding to purified HLA, 125I-labelled standard peptide, gel filtration; ratio = IC50 standard / IC50 test peptide; settings: remark: other sources report otherwise
HLA-A*0202 (human) [21] = experiment: as above; settings: remark: other sources report otherwise
HLA-A*0203 (human) [22] = experiment: as above; settings: remark: other sources report otherwise
HLA-A*0201 (human) [23] = experiment: as above; settings: remark: other sources report otherwise
HLA-A*0301 (human) [24] = experiment: competition with 125I-labelled standard peptide for purified HLA-A*0301, gel filtration; relative binding
HLA-A*0206 (human) [25] = experiment: competition with 125I-labelled standard peptide 941.01 ([..]) for purified HLA-A*0206, gel filtration
HLA-A*0201 (human) [26] = experiment: competition with 125I-labelled standard peptide 941.01 ([..]) for purified HLA-A*0201, gel filtration
HLA-A*0202 (human) [27] = experiment: competition with 125I-labelled standard peptide 941.01 ([..]) for purified HLA-A*0202, gel filtration
HLA-A*0203 (human) [28] = experiment: competition with 125I-labelled standard peptide 941.01 ([..]) for purified HLA-A*0203, gel filtration
HLA-A*6802 (human) [29] = experiment: competition with 125I-labelled standard peptide 1072.34 ([..]) for purified HLA-A*6802, gel filtration
[30] = target: HLA-A*0202 (purified HLA class I molecule) (human); experiment: competition with 125I-labelled standard peptide for purified HLA, gel filtration
[31] = target: HLA-A*0201 (purified HLA class I molecule) (human); experiment: as above
[32] = target: HLA-A*0206 (purified HLA class I molecule) (human); experiment: as above
[33] = target: HLA-A*0203 (purified HLA class I molecule) (human); experiment: as above

binding affinity ratio (IC50 of the standard peptide / IC50 of the test peptide) [1]: 0.0001
B2: PSM peptide … (position 168, 9 amino acids) (peptide)
peptide: GMPEGDLVY
modifications: not checked

binding affinity ratio (HLA-A*6802 (human) [2]): -0.0001
binding affinity ratio (HLA-A*0201 (human) [3]; remark: other sources report otherwise): 0.0008
B3: … (Kallikrein, position 138) (peptide)
peptide: VLGLPTQEPA
modifications: not checked

binding affinity ratio (IC50 of standard peptide / IC50 of test peptide) (HLA-A*1101 (human)): 0.0002
B4: PSM.273 peptide … (peptide)
peptide: PANEYAYRR
modifications: not checked

binding affinity ratio (HLA-A*0206 (human) [8]): 0.0002
binding affinity ratio (HLA-A*0202 (human) [9]): -0.0001
binding affinity ratio (HLA-A*0203 (human) [10]): 0.0002
binding affinity ratio (HLA-A*0201 (human) [3]): -0.0001
B7: … (Kallikrein, position 40) (peptide)
peptide: VAVYSHGWA
modifications: not checked

binding affinity ratio (HLA-A*0202 (human) [16]): 0.0005
binding affinity ratio (HLA-A*0203 (human) [17]): 0.0005
binding affinity ratio (HLA-A*0201 (human) [18]): 0.0002
binding affinity ratio (HLA-A*6802 (human) [19]): -0.0001
B9: … (Kallikrein position 52 / PSA position 48, 11-mer) (peptide)
peptide: GVLVHPQWVLT
modifications: not checked

binding affinity ratio (HLA-A*0206 (human) [20]): 0.0001
binding affinity ratio (HLA-A*0202 (human) [21]): 0.018
binding affinity ratio (HLA-A*0203 (human) [22]): 0.01
binding affinity ratio (HLA-A*0201 (human) [23]): 0.0041
B10: … (PSA, position 136, 11 amino acids) (peptide)
peptide: DLPTQEPALGT
modifications: not checked

The remaining lines, values behind:

B1: PSA 236 peptide … (peptide)
peptide: PSLYTKVVHY
modifications: not checked
binding affinity ratio (IC50 of the standard peptide / IC50 of the test peptide) (HLA-A*0101 (human)): 0.001

B5: KITDVVKV (Kallikrein, position 131) (peptide)
peptide: KITDVVKV
modifications: not checked
binding affinity ratio (ratio to standard peptide) (HLA-A*0206 (human) [4]): 0.0002
binding affinity ratio (ratio to standard peptide) (HLA-A*0202 (human) [5]): 0.0002
binding affinity ratio (ratio to standard peptide) (HLA-A*6802 (human) [6]): -0.0001

B6: PSM 273 peptide … (peptide)
peptide: PANEYAYRR
modifications: not checked
binding affinity ratio (IC50 of the standard peptide / IC50 of the test peptide) (HLA-A*0301 (human) [7]): 0.0001

B8: PSA peptide QVHPQKVT, position 182, 8 amino acids (peptide)
peptide: QVHPQKVT
modifications: not checked
binding affinity ratio (ratio to standard peptide) (HLA-A*0206 (human) [11]): -0.0001
binding affinity ratio (ratio to standard peptide) (HLA-A*0202 (human) [12]): -0.0001
binding affinity ratio (ratio to standard peptide) (HLA-A*0203 (human) [13]): 0.0001
binding affinity ratio (ratio to standard peptide) (HLA-A*6802 (human) [14]): -0.0001
binding affinity ratio (ratio to standard peptide) (HLA-A*0201 (human) [15]): -0.0001

B11: PSM peptide … (PSM position 31, 9 amino acids) (peptide)
peptide: GFFLLGFLF
modifications: not checked
binding affinity ratio (IC50 of the standard peptide / IC50 of the test peptide) (HLA-A*0301 (human) [24]): 0.0005

B12: PSA peptide VASRGRAV (position 38, 8 amino acids) (peptide)
peptide: VASRGRAV
modifications: not checked
binding affinity ratio (IC50 of standard peptide / IC50 of test peptide) (HLA-A*0206 (human) [25]): -0.0001
binding affinity ratio (IC50 of standard peptide / IC50 of test peptide) (HLA-A*0201 (human) [26]): -0.0001
binding affinity ratio (IC50 of standard peptide / IC50 of test peptide) (HLA-A*0202 (human) [27]): -0.0001
binding affinity ratio (IC50 of standard peptide / IC50 of test peptide) (HLA-A*0203 (human) [28]): -0.0001
binding affinity ratio (IC50 of standard peptide / IC50 of test peptide) (HLA-A*6802 (human) [29]): -0.0001

B13: PSA peptide MLCAGRWT (position 192, 8 amino acids) (peptide)
peptide: MLCAGRWT
modifications: not checked
binding affinity ratio (IC50 of standard peptide / IC50 of test peptide) [30]: 0.0012
binding affinity ratio (IC50 of standard peptide / IC50 of test peptide) [31]: 0.0006
binding affinity ratio (IC50 of standard peptide / IC50 of test peptide) [32]: -0.0001
binding affinity ratio (IC50 of standard peptide / IC50 of test peptide) [33]: 0.0033
